Assay results from paper PMC5477842 (Science (New York, N.Y.), 2016).

Tests used:
calmodulin = calmodulin (UniProt P0DP23 1-149); test: cryo-EM structure
cryo-EM structure = biological target: the molecule itself; test: cryo-EM structure

B1: Truncated rat Eag1 (rEag1Δ; Kv10.1 with residues 773-886 removed) (natural protein, UniProt Q63472 1-962, looked up)
chain: MTMAGGRRGLVAPQNTFLENIVRRSNDTNFVLGNAQIVDWPIVYSNDGFCKLSGYHRAEVMQKSSACSFMYGELTDKDTVEKVRQTFENYEMNSFEILMYKKNRTPVWFFVKIAPIRNEQDKVVLFLCTFSDITAFKQPIEDDSCKGWGKFARLTRALTSSRGVLQQLAPSVQKGENVHKHSRLAEVLQLGSDILPQYKQEAPKTPPHIILHYCVFKTTWDWIILILTFYTAILVPYNVSFKTRQNNVAWLVVDSIVDVIFLVDIVLNFHTTFVGPAGEVISDPKLIRMNYLKTWFVIDLLSCLPYDVINAFENVDEGISSLFSSLKVVRLLRLGRVARKLDHYIEYGAAVLVLLVCVFGLAAHWMACIWYSIGDYEIFDEDTKTIRNNSWLYQLALDIGTPYQFNGSGSGKWEGGPSKNSVYISSLYFTMTSLTSVGFGNIAPSTDIEKIFAVAIMMIGSLLYATIFGNVTTIFQQMYANTNRYHEMLNSVRDFLKLYQVPKGLSERVMDYIVSTWSMSRGIDTEKVLQICPKDMRADICVHLNRKVFKEHPAFRLASDGCLRALAMEFQTVHCAPGDLIYHAGESVDSLCFVVSGSLEVIQDDEVVAILGKGDVFGDVFWKEATLAQSCANVRALTYCDLHVIKRDALQKVLEFYTAFSHSFSRNLILTYNLRKRIVFRKISDVKREEEERMKRKNEAPLILPPDHPVRRLFQRFRQQKEARLAAERGGRDLDDLDVEKGNALTDHTSANHSLVKASVVTVRESPATPVSFYPIPEQTLQATVLEVKHELKEDIKALNAKMTSIEKQLSEILRILMSRGSSQSPQDTCEVSRPQSPESDRDIFGAS
modifications: N-acetyl glucosamine on N388 (density observed); glycosylation sites N388 and N406
binding result (calmodulin): binds
stoichiometry N (cryo-EM structure): 4
